From US9169496B2, “Method for the enzymatic production of butadiene” (Scientist of Fortune, S.A., priority 2011, dated 2015) come the findings set out here.

Substrate in data set [1]: C/C=C/COP(=O)(O)O
Nature of the data set: Kinetic parameters of the crotyl monophosphate phosphorylation reaction (pyruvate kinase/lactate dehydrogenase coupled spectrophotometric assay). The data set is classed as biochemical, Methanothermobacter thermautotrophicus. As to conditions: other: trans crotyl monophosphate as a substrate; assay of Example 2; pH 7.5; 37.0 °C. Here is the method: (§1) The release of ADP that is associated with crotyl alcohol phosphorylation was quantified using the pyruvate kinase/lactate dehydrogenase coupled assay (FIG. 5). The purified 4-methyl-5-(2-hydroxyethyl)thiazole kinases from Escherichia coli (SEQ ID NO:2), Bacillus subtilis (SEQ ID NO:1), Rhizobium leguminosarum (SEQ ID NO:3) were evaluated for their ability to phosphorylate crotyl alcohol releasing ADP. The studied enzymatic reaction was carried out under the following conditions at 37° C.: • 50 mM Tris-HCl pH 7.5 • 10 mM MgCl2 • 100 mM KCl • 5 mM ATP • 0.4 mM NADH • 1 mM Phosphoenolpyruvate • 3 U/ml Lactate dehydrogenase • 1.5 U/ml Pyruvate kinase • 50 mM crotyl alcohol, mixture cis and trans • The pH was adjusted to 7.5
(§2) Each assay was started by addition of a particular enzyme at a concentration 0.05 mg/ml and the disappearance of NADH was monitored by following the absorbance at 340 nm.
(§3) Sequences of isopentenyl monophosphate kinases inferred from the genomes of several members of the Archaea, in particular Methanothermobacter (SEQ ID NO:5), Methanocaldococcus (SEQ ID NO:6) and Thermoplasma (SEQ ID NO:4) genus, are generated by oligonucleotide concatenation to fit the codon usage of E. coli. […] The genes thus synthesized are cloned in a pET25b expression vector and the proteins are produced according to the protocol described in Example 1. The enzymes are then assayed using the method described in Example 2 with crotyl monophosphate concentrations varying from 0 to 50 mM. The release of ADP that is associated with crotyl monophosphate phosphorylation is quantified using the pyruvate kinase/lactate dehydrogenase coupled assay. Each assay is started by addition of particular enzyme (at a final concentration from 0.05 mg/ml to 1 mg/ml) and the disappearance of NADH is monitored by following the absorbance at 340 nm.
(§4) Cis crotyl monophosphate and trans crotyl monophosphate were synthesized upon request by a company specialized in custom synthesis (Syntheval, France). Kinetic parameters for the phosphorylation of these substrates were determined using the spectrophotometric assay described in Example 2. Kinetic parameters obtained with purified isopentenyl monophosphate kinases from different members of the Archaea kingdom are presented in Table 3 (cis crotyl monophosphate as a substrate) and Table 4 (trans crotyl monophosphate as a substrate).

Substrate in data set [2]: C/C=C\COP(=O)(O)O
The description is as above. Format: biochemical, Methanothermobacter thermautotrophicus. Conditions: other: cis crotyl monophosphate as a substrate; assay of Example 2; pH 7.5; 37.0 °C. Here is the method:
as §1, §2, §3, §4

Substrate in data set [3]: C/C=C/COP(=O)(O)O
The description is as above. Format: biochemical, Thermoplasma acidophilum. As to conditions: other: trans crotyl monophosphate as a substrate; assay of Example 2; pH 7.5; 37.0 °C. As for the experimental part: as §1, §2, §3, §4

Substrate in data set [4]: C/C=C\COP(=O)(O)O
The description is as above. The data set is classed as biochemical, Thermoplasma acidophilum. Conditions: other: cis crotyl monophosphate as a substrate; assay of Example 2; pH 7.5; 37.0 °C. Here is the method: as §1, §2, §3, §4

Substrate in data set [5]: C/C=C/COP(=O)(O)O
The description is as above. Format: biochemical, Methanocaldococcus jannaschii. Conditions: other: trans crotyl monophosphate as a substrate; assay of Example 2; pH 7.5; 37.0 °C. As for the experimental part:
as §1, §2, §3, §4

Substrate in data set [6]: C/C=C\COP(=O)(O)O
The data set is described as above. The data set is classed as biochemical, Methanocaldococcus jannaschii. As to conditions: other: cis crotyl monophosphate as a substrate; assay of Example 2; pH 7.5; 37.0 °C. Here is the method: as §1, §2, §3, §4

Substrate in data set [7]: C/C=C/C(=O)SCCNC(=O)CCNC(=O)[C@H](O)C(C)(C)COP(=O)(O)OP(=O)(O)OC[C@H]1O[C@@H](n2cnc3c(N)ncnc32)[C@H](O)[C@@H]1OP(=O)(O)O
In words: Kinetic parameters towards crotonyl-CoA, overall reaction (crotyl alcohol quantification by HPLC). The data set is classed as biochemical, Hahella chejuensis. Conditions: other: NADPH fixed at 80 mM, crotonyl-CoA 0 to 32 mM, pH 7.5, 37° C.

Substrate in data set [8]: NC(=O)C1=CN([C@@H]2O[C@H](COP(=O)(O)OP(=O)(O)OC[C@H]3O[C@@H](n4cnc5c(N)ncnc54)[C@H](OP(=O)(O)O)[C@@H]3O)[C@@H](O)[C@H]2O)C=CC1
Nature of the data set: purified protein, by the assay type. Conditions: other: crotonyl-CoA fixed at 5 mM, NADPH 0 to 0.8 mM, pH 7.5, 37° C.

Substrate in data set [9]: C/C=C/CO
In words: Kinetic parameters of crotyl alcohol phosphorylation (pyruvate kinase/lactate dehydrogenase coupled spectrophotometric assay). Format: biochemical, Escherichia coli. As to conditions: other: crotyl alcohol phosphorylation, pH 7.5, 37° C., 5 mM ATP. As for the experimental part: as §1, §2
(§5) Kinetic parameters of crotyl alcohol phosphorylation were determined using the spectrophotometric assay described in Example 2.

Substrate in data set [10]: C/C=C\CO
The description is as above. The data set is classed as biochemical, Escherichia coli. As to conditions: other: crotyl alcohol phosphorylation, pH 7.5, 37° C., 5 mM ATP. Here is the method: as §1, §2, §5

Substrate in data set [11]: C/C=C/COP(=O)(O)O
Nature of the data set: Kinetic parameters of enzyme catalyzed production of 1,3-butadiene from trans crotyl monophosphate (GC/FID). Format: biochemical, Eucalyptus globulus. As to conditions: other: 0-25 mM trans crotyl monophosphate, pH 7.5, 37° C., 20 mM MgCl2, 20 mM KCl, 0.5-4 h. As for the experimental part:
(§6) One ml of the gaseous phase was then collected and directly injected into a Varian GC-430 gas chromatograph equipped with a flame ionization detector (FID). Nitrogen was used as carrier gas with a flow rate of 1.5 ml/min. Volatile compounds were chromatographically separated on RT-Alumina Bond/Na2SO4 column (Restek) using an isothermal mode at 130° C. The enzymatic reaction product was identified by direct comparison with 1,3-butadiene standard (Sigma).
The kinetic parameters of enzyme catalyzed production of 1,3-butadiene from trans crotyl monophosphate were measured under the following conditions: • 50 mM Tris-HCl pH 7.5 • 20 mM MgCl2 • 20 mM KCl • 2 mM DTT • 0-25 mM trans crotyl monophosphate
(§7) The reaction was initiated by addition of 0.25 mg of purified monoterpene synthase from Eucalyptus globulus to 0.5 ml of reaction mixture. An enzyme-free control reaction was carried out in parallel. Assays were incubated at 37° C. for 0.5-4 h in a sealed vial of 1.5 ml (Interchim) with shaking.
(§8) 1,3-butadiene production was analyzed using the GC/FID procedure described in Example 12.

Substrate in data set [12]: C/C=C/COP(=O)(O)OP(=O)(O)O
In words: Kinetic parameters of enzyme catalyzed production of 1,3-butadiene from trans crotyl diphosphate (GC/FID). Format: biochemical, Eucalyptus globulus. Conditions: other: 0-25 mM trans crotyl diphosphate, pH 7.5, 37° C., 20 mM MgCl2, 20 mM KCl, 0.5-4 h. As for the experimental part: as §6
The kinetic parameters of enzyme catalyzed production of 1,3-butadiene from trans crotyl […] were measured under the following conditions: • 50 mM Tris-HCl pH 7.5 • 20 mM MgCl2 • 20 mM KCl • 2 mM DTT • 0-25 mM trans crotyl diphosphate
as §7, §8

B1: isopentenyl monophosphate kinase from Methanothermobacter thermautotrophicus, SEQ ID NO:5 (Methanothermobacter thermautotrophicus str. Delta H) (protein)
chain: MIILKLGGSVITRKDSEEPAIDRDNLERIASEIGNASPSSLMIVHGAGSFGHPFAGEYRIGSEIENEEDLRRRRFGFALTQNWVKKLNSHVCDALLAEGIPAVSMQPSAFIRAHAGRISHADISLIRSYLEEGMVPVVYGDVVLDSDRRLKFSVISGDQLINHFSLRLMPERVILGTDVDGVYTRNPKKHPDARLLDVIGSLDDLESLDGTLNTDVTGGMVGKIRELLLLAEKGVESEIINAAVPGNIERALLGEEVRGTRITGKH
Take B1: the Km in [1] worked out at 450 µM; in [2], 940 µM. Moreover, the values for the kcat in data set [1] and in data set [2] were 8.7 s⁻¹ and 5.7 s⁻¹, respectively.

B2: isopentenyl monophosphate kinase from Thermoplasma acidophilum, SEQ ID NO:4 (Thermoplasma acidophilum DSM 1728) (protein)
chain: MMILKIGGSVITDKSAYRTARTYAIRSIVKVLSGIEDLVCVVHGGGSFGHIKAMEFGLPGPKNPRSSIGYSIVHRDMENLDLMVIDAMIEMGMRPISVPISALRYDGRFDYTPLIRYIDAGFVPVSYGDVYIKDEHSYGIYSGDDIMADMAELLKPDVAVFLTDVDGIYSKDPKRNPDAVLLRDIDTNITFDRVQNDVTGGIGKKFESMVKMKSSVKNGVYLINGNHPERIGDIGKESFIGTVIR
For the protein B2, in data set [3], the Km stood at 1000 µM and the kcat stood at 2.2 s⁻¹. In addition, in data set [4], the Km worked out at 610 µM and the kcat is 1.8 s⁻¹.

B3: isopentenyl monophosphate kinase from Methanocaldococcus jannaschii, SEQ ID NO:6 (Methanocaldococcus jannaschii DSM 2661) (protein)
chain: MLTILKLGGSILSDKNVPYSIKWDNLERIAMEIKNALDYYKNQNKEIKLILVHGGGAFGHPVAKKYLKIEDGKKIFINMEKGFWEIQRAMRRFNNIIIDTLQSYDIPAVSIQPSSFVVFGDKLIFDTSAIKEMLKRNLVPVIHGDIVIDDKNGYRIISGDDIVPYLANELKADLILYATDVDGVLIDNKPIKRIDKNNIYKILNYLSGSNSIDVTGGMKYKIDMIRKNKCRGFVFNGNKANNIYKALLGEVEGTEIDFSE
For B3, in data set [5], the Michaelis constant (Km) was determined as 490 µM and the kcat amounted to 3 s⁻¹. In data set [6], the Km is 200 µM and the kcat was 3.4 s⁻¹.

B4: short chain alcohol dehydrogenase-like protein from Hahella chejuensis, SEQ ID NO: 17 (Hahella chejuensis KCTC 2396) (protein)
chain: MNYFVTGGTGFIGRFLVPKLLKRGGTVYLLVREASLPKLDELRERWNASDEQVVGVVGDLAQPMLGVSEKDAAMLRGKVGHFFHLAAIYDMQASAESQEQANIEGTRNAVKLADSLKAACFHHVSSIAAAGLYRGIFREDMFEEAEKLDNPYLRTKHESEKVVREECQTPWRVYRPGMVVGHSKTGEIDKIDGPYYFFKLIQKLRSALPQWMPTVGLEGGRINIVPVDFVVDAMDHIAHAEGEDGKCFHLTDPDPYKVGEILNIFAEAGHAPKMAMRIDARMFGFIPPMIRQGIARLPPVQRMKNAVLNDLGIPDEVMSFINYPTRFDNRETERLLKGTAIAVPRLQDYSPAIWDYWERHLDPDLHKDRTLRGAVEGRVCVITGATSGIGLSAARKLAEAGAKVVIAARTLEKLQEVKKELEELGGEVYEYSVDLSDLEDCDRFVANVLKDLGHVDVLVNNAGRSIRRSIQHAFDRFHDFERTMQLNYFGSLRLIMGFAPSMLERRRGHIVNISSIGVLTNAPRFSAYVASKAALDAFSRCAAAEFSDKNVTFTTINMPLVRTPMISPTKIYDSVPTLTPEEAADLVAEAIIHRPKRIATRLGVFAQVLHSMAPKFSEIIMNTGFKMFPDSSAATGGKDGEKPKVSTEQVAFAAIMRGIHW
Regarding B4, the figures for the Michaelis constant (Km) in [7] and in [8] were 5000 µM and 1000 µM, respectively. Further, the figures for the kcat in data set [7] and in [8] were 0.05 s⁻¹ and 6.0 s⁻¹, respectively.

B5: 4-methyl-5-(2-hydroxyethyl)thiazole kinase (hydroxyethylthiazole kinase, EC 2.7.1.50) from Escherichia coli, SEQ ID NO:2 (Escherichia coli K-12) (protein)
chain: MQVDLLGSAQSAHALHLFHQHSPLVHCMTNDVVQTFTANTLLALGASPAMVIETEEASQFAAIASALLINVGTLTQPRAQAMRAAVEQAKSSQTPWTLDPVAVGALDYRRHFCHELLSFKPAAIRGNASEIMALAGIANGGRGVDTTDAAANAIPAAQTLARETGAIVVVTGEMDYVTDGHRIIGIHGGDPLMTKVVGTGCALSAVVAACCALPGDTLENVASACHWMKQAGERAVARSEGPGSFVPHFLDALWQLTQEVQA
Consider B5, for which, in [9], the Km came out at 30000 µM and the kcat came out at 0.11 s⁻¹. For the same protein, in data set [10], the Km was 13600 µM and the kcat turned out to be 0.19 s⁻¹.

B6: monoterpene synthase from Eucalyptus globulus, SEQ ID NO: 8 (Eucalyptus globulus) (protein)
chain: MALRLLFTPHLPVLSSRRANGRVRCSASTQISDPQEGRRSANYQPSVWTYNYLQSIVAGEGRQSRREVEQQKEKVQILEEEVRGALNDEKAETFTIFATVDDIQRLGLGDHFEEDISNALRRCVSKGAVFMSLQKSLHGTALGFRLLRQHGYEVSQDVFKIFLDESGSFVKTLGGDVQGVLSLYEASHLAFEEEDILHKARSFAIKHLENLNSDVDKDLQDQVKHELELPLHRRMPLLEARRSIEAYSRREYTNPQILELALTDFNVSQSTLQRDLQEMLGWWNNTGLAKRLSFARDRLIECFFWAVGIAHEPSLSICRKAVTKAFALILVLDDVYDVFGTLEELELFTEAVRRWDLNAVEDLPVYMKLCYLALYNSVNEMAYETLKEKGENVIPYLAKAWYDLCKAFLQEAKWSNSRIIPGVEEYLNNGWVSSSGSVMLIHAYFLASPSIRKEELESLEHYHDLLRLPSLIFRLTNDIASSSAELERGETTNSIRCFMQEKGISELEARECVKEEIDTAWKKMNKYMVDRSTFNQSFVRMTYNLARMAHCVYQDGDAIGSPDDLSWNRVHSLIIKPISPAA
On to B6, for which, in [11], the Km was found to be 6000 µM. In data set [12], the Km was found to be 7000 µM and the kcat was found to be 3e-05 s⁻¹.
